Assay results as given in patent publication US20070129307A1 (UNIVERSITY OF BRITISH COLUMBIA, published 2007).

What was measured:
[1] = target: T1, murine MHC class I molecule, H-2Kd (mouse, UniProt P01887 21-119; P01902 22-368, limits assumed); experiment: MHC class I stabilization assay on TAP-deficient RMAS-Kd cells, anti-H-2Kd-FITC, flow cytometry (background without peptide 6.07%)
T1 construct: whole, on cells; MHC class I molecule on the surface of RMAS-Kd cells
T1 sequence (MHC heavy, looked up): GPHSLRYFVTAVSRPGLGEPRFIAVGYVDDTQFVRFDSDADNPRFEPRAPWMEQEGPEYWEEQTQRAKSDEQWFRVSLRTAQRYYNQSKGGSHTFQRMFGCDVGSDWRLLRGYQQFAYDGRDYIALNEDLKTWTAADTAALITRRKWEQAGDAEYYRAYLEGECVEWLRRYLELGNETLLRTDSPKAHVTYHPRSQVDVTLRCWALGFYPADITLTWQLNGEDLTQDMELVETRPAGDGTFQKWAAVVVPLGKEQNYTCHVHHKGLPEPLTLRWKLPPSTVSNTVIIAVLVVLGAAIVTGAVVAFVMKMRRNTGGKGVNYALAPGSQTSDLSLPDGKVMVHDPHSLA
T1 sequence (b2m, looked up): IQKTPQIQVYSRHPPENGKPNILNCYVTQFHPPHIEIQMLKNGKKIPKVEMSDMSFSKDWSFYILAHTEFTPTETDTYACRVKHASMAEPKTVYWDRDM

[2] = target: T2, human MHC class I molecule HLA-A*0201 (human); experiment: HLA-A2 stabilization on T2 cells loaded with 50 ug/ml peptide, anti-HLA-A2 (BB7.2) flow cytometry, MFI relative to CMV/A2
T2 construct: MHC class I molecule on the surface of T2 cells; also called HLA-A2; HLA-A201

[3] = target: T2, human MHC class I molecule HLA-A*0201; experiment: peptide/HLA-A2 complex stability on T2 cells after peptide removal and emetine, 37 C, anti-HLA-A2 flow cytometry, normalized to CMV/HLA-A2

Binder	% of RMAS-Kd cells staining positive for surface H-2Kd [1]	relative HLA-A2 surface expression (% of CMV/A2 peptide binding) [2]	% of peptide/HLA-A2 complex dissociated in 4 hours [3]
KYQAVTTTL (also called negative control peptide TUM) [TUM]	66.5%	–	–
ALWMRLLPL [Insulin2]	–	> 80%	~20%
SLSPLQAEL [IA-2(172)]	–	> 80%	< 5%
LLPPLLEHL [IA-2(180)]	–	> 80%	–
SLAAGVKLL [IA-2(482)]	–	> 80%	–
GMAELMAGL [Phogrin331]	–	> 80%	~20%
KLPAVLLIL [murine IAPP precursor peptide mTV1]	64.2%	–	–
KYPAVLLIL (Modified version of TV1 with leucine to tyrosine at position 2; also called MTV2) [TV2]	58.5%	–	–
RLLCALTSL [IGRP293]	–	–	~20%
KLQVFLIVL (also called HTV1; HTV-1) [IAPP5]	–	–	< 5%
FLIVLSVAL [IAPP9]	–	–	< 5%
FLWSVFMLI [IGRP152]	–	–	< 5%
FLFAVGFYL [IGRP215]	–	–	< 5%
RLLPLLALL (Peptide derived from the mouse insulin protein) [TV3]	70.1%	–	–
